# Assay results published in US20140107039.
# Legend:
# [1] = test system: H3K27ac peptide (18-37)
# [2] = test system: H3.3K27M peptide (18-37)
# Sequence of H3.3K27M peptide (18-37) (chain, as listed by the source): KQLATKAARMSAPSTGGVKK
substance,measurement,setting,value
"Polycomb Repressive Complex 2 (PRC2), purified through FLAG-tagged human EED from HeLa or HEK293T nuclear extract",Apparent Vmax of PRC2 methyltransferase reaction at varying mononucleosome concentrations,[1],PRC2 reactions that contained H3K27ac peptide of identical peptide concentrations did not decrease the apparent Vmax of the reaction
same,Apparent Vmax of PRC2 methyltransferase reaction at varying mononucleosome concentrations,[2],showed a reduction in the apparent Vmax by addition of the K27M peptide
